Test results from article PMC10770755, “Effects of specific disease mutations in non-muscle myosin 2A on its structure and function” (The Journal of Biological Chemistry, 2023).

B1: GST-LMM, wild type (light meromyosin of human non-muscle myosin 2A heavy chain, residues 1212-1960) (domain or fragment, UniProt P35579 1212-1960, looked up)
chain: KANLEKAKQTLENERGELANEVKVLLQGKGDSEHKRKKVEAQLQELQVKFNEGERVRTELADKVTKLQVELDNVTGLLSQSDSKSSKLTKDFSALESQLQDTQELLQEENRQKLSLSTKLKQVEDEKNSFREQLEEEEEAKHNLEKQIATLHAQVADMKKKMEDSVGCLETAEEVKRKLQKDLEGLSQRHEEKVAAYDKLEKTKTRLQQELDDLLVDLDHQRQSACNLEKKQKKFDQLLAEEKTISAKYAEERDRAEAEAREKETKALSLARALEEAMEQKAELERLNKQFRTEMEDLMSSKDDVGKSVHELEKSKRALEQQVEEMKTQLEELEDELQATEDAKLRLEVNLQAMKAQFERDLQGRDEQSEEKKKQLVRQVREMEAELEDERKQRSMAVAARKKLEMDLKDLEAHIDSANKNRDEAIKQLRKLQAQMKDCMRELDDTRASREEILAQAKENEKKLKSMEAEMIQLQEELAAAERAKRQAQQERDELADEIANSSGKGALALEEKRRLEARIAQLEEELEEEQGNTELINDRLKKANLQIDQINTDLNLERSHAQKNENARQQLERQNKELKVKLQEMEGTVKSKYKASITALEAKIAQLEEQLDNETKERQAACKQVRRTEKKLKDVLLQVDDERRNAEQYKDQADKASTRLKQLKRQLEEAEEEAQRANASRRKLQRELEDATETADAMNREVSSLKNKLRRGDLPFVVPRRMARKGAGDGSDEEVDGKADGAEAKPAE
notes: pGEX-6P-1 adds GST and a PreScission site at the N-terminus; GST kept for EM; also called WT GST-LMM; source: E. coli Rosetta 2, purified (Glutathione Sepharose 4B); not shown: GST, N-terminal, kept
B2: GST-LMM V1516M (domain or fragment, human, UniProt P35579 1212-1960, looked up)
chain: KANLEKAKQTLENERGELANEVKVLLQGKGDSEHKRKKVEAQLQELQVKFNEGERVRTELADKVTKLQVELDNVTGLLSQSDSKSSKLTKDFSALESQLQDTQELLQEENRQKLSLSTKLKQVEDEKNSFREQLEEEEEAKHNLEKQIATLHAQVADMKKKMEDSVGCLETAEEVKRKLQKDLEGLSQRHEEKVAAYDKLEKTKTRLQQELDDLLVDLDHQRQSACNLEKKQKKFDQLLAEEKTISAKYAEERDRAEAEAREKETKALSLARALEEAMEQKAELERLNKQFRTEMEDLMSSKDDMGKSVHELEKSKRALEQQVEEMKTQLEELEDELQATEDAKLRLEVNLQAMKAQFERDLQGRDEQSEEKKKQLVRQVREMEAELEDERKQRSMAVAARKKLEMDLKDLEAHIDSANKNRDEAIKQLRKLQAQMKDCMRELDDTRASREEILAQAKENEKKLKSMEAEMIQLQEELAAAERAKRQAQQERDELADEIANSSGKGALALEEKRRLEARIAQLEEELEEEQGNTELINDRLKKANLQIDQINTDLNLERSHAQKNENARQQLERQNKELKVKLQEMEGTVKSKYKASITALEAKIAQLEEQLDNETKERQAACKQVRRTEKKLKDVLLQVDDERRNAEQYKDQADKASTRLKQLKRQLEEAEEEAQRANASRRKLQRELEDATETADAMNREVSSLKNKLRRGDLPFVVPRRMARKGAGDGSDEEVDGKADGAEAKPAE
notes: MYH9 disease mutation; also called V1615M [sic]; source: E. coli Rosetta 2, purified (Glutathione Sepharose 4B); not shown: GST, N-terminal, kept
B3: GST-LMM E1841K (domain or fragment, human, UniProt P35579 1212-1960, looked up)
chain: KANLEKAKQTLENERGELANEVKVLLQGKGDSEHKRKKVEAQLQELQVKFNEGERVRTELADKVTKLQVELDNVTGLLSQSDSKSSKLTKDFSALESQLQDTQELLQEENRQKLSLSTKLKQVEDEKNSFREQLEEEEEAKHNLEKQIATLHAQVADMKKKMEDSVGCLETAEEVKRKLQKDLEGLSQRHEEKVAAYDKLEKTKTRLQQELDDLLVDLDHQRQSACNLEKKQKKFDQLLAEEKTISAKYAEERDRAEAEAREKETKALSLARALEEAMEQKAELERLNKQFRTEMEDLMSSKDDVGKSVHELEKSKRALEQQVEEMKTQLEELEDELQATEDAKLRLEVNLQAMKAQFERDLQGRDEQSEEKKKQLVRQVREMEAELEDERKQRSMAVAARKKLEMDLKDLEAHIDSANKNRDEAIKQLRKLQAQMKDCMRELDDTRASREEILAQAKENEKKLKSMEAEMIQLQEELAAAERAKRQAQQERDELADEIANSSGKGALALEEKRRLEARIAQLEEELEEEQGNTELINDRLKKANLQIDQINTDLNLERSHAQKNENARQQLERQNKELKVKLQEMEGTVKSKYKASITALEAKIAQLEEQLDNETKERQAACKQVRRTKKKLKDVLLQVDDERRNAEQYKDQADKASTRLKQLKRQLEEAEEEAQRANASRRKLQRELEDATETADAMNREVSSLKNKLRRGDLPFVVPRRMARKGAGDGSDEEVDGKADGAEAKPAE
notes: MYH9 disease mutation; also called E1814K [sic]; source: E. coli Rosetta 2, purified (Glutathione Sepharose 4B); not shown: GST, N-terminal, kept
B4: GST-LMM D1447G (domain or fragment, human, UniProt P35579 1212-1960, looked up)
chain: KANLEKAKQTLENERGELANEVKVLLQGKGDSEHKRKKVEAQLQELQVKFNEGERVRTELADKVTKLQVELDNVTGLLSQSDSKSSKLTKDFSALESQLQDTQELLQEENRQKLSLSTKLKQVEDEKNSFREQLEEEEEAKHNLEKQIATLHAQVADMKKKMEDSVGCLETAEEVKRKLQKDLEGLSQRHEEKVAAYDKLEKTKTRLQQELDDLLVDLDHQRQSACNLEKKQKKFGQLLAEEKTISAKYAEERDRAEAEAREKETKALSLARALEEAMEQKAELERLNKQFRTEMEDLMSSKDDVGKSVHELEKSKRALEQQVEEMKTQLEELEDELQATEDAKLRLEVNLQAMKAQFERDLQGRDEQSEEKKKQLVRQVREMEAELEDERKQRSMAVAARKKLEMDLKDLEAHIDSANKNRDEAIKQLRKLQAQMKDCMRELDDTRASREEILAQAKENEKKLKSMEAEMIQLQEELAAAERAKRQAQQERDELADEIANSSGKGALALEEKRRLEARIAQLEEELEEEQGNTELINDRLKKANLQIDQINTDLNLERSHAQKNENARQQLERQNKELKVKLQEMEGTVKSKYKASITALEAKIAQLEEQLDNETKERQAACKQVRRTEKKLKDVLLQVDDERRNAEQYKDQADKASTRLKQLKRQLEEAEEEAQRANASRRKLQRELEDATETADAMNREVSSLKNKLRRGDLPFVVPRRMARKGAGDGSDEEVDGKADGAEAKPAE
notes: MYH9 disease mutation; source: E. coli Rosetta 2, purified (Glutathione Sepharose 4B); not shown: GST, N-terminal, kept
B5: GST-LMM D1447H (domain or fragment, human, UniProt P35579 1212-1960, looked up)
chain: KANLEKAKQTLENERGELANEVKVLLQGKGDSEHKRKKVEAQLQELQVKFNEGERVRTELADKVTKLQVELDNVTGLLSQSDSKSSKLTKDFSALESQLQDTQELLQEENRQKLSLSTKLKQVEDEKNSFREQLEEEEEAKHNLEKQIATLHAQVADMKKKMEDSVGCLETAEEVKRKLQKDLEGLSQRHEEKVAAYDKLEKTKTRLQQELDDLLVDLDHQRQSACNLEKKQKKFHQLLAEEKTISAKYAEERDRAEAEAREKETKALSLARALEEAMEQKAELERLNKQFRTEMEDLMSSKDDVGKSVHELEKSKRALEQQVEEMKTQLEELEDELQATEDAKLRLEVNLQAMKAQFERDLQGRDEQSEEKKKQLVRQVREMEAELEDERKQRSMAVAARKKLEMDLKDLEAHIDSANKNRDEAIKQLRKLQAQMKDCMRELDDTRASREEILAQAKENEKKLKSMEAEMIQLQEELAAAERAKRQAQQERDELADEIANSSGKGALALEEKRRLEARIAQLEEELEEEQGNTELINDRLKKANLQIDQINTDLNLERSHAQKNENARQQLERQNKELKVKLQEMEGTVKSKYKASITALEAKIAQLEEQLDNETKERQAACKQVRRTEKKLKDVLLQVDDERRNAEQYKDQADKASTRLKQLKRQLEEAEEEAQRANASRRKLQRELEDATETADAMNREVSSLKNKLRRGDLPFVVPRRMARKGAGDGSDEEVDGKADGAEAKPAE
notes: as for B4
B6: GST-LMM D1424G (domain or fragment, human, UniProt P35579 1212-1960, looked up)
chain: KANLEKAKQTLENERGELANEVKVLLQGKGDSEHKRKKVEAQLQELQVKFNEGERVRTELADKVTKLQVELDNVTGLLSQSDSKSSKLTKDFSALESQLQDTQELLQEENRQKLSLSTKLKQVEDEKNSFREQLEEEEEAKHNLEKQIATLHAQVADMKKKMEDSVGCLETAEEVKRKLQKDLEGLSQRHEEKVAAYDKLEKTKTRLQQELDGLLVDLDHQRQSACNLEKKQKKFDQLLAEEKTISAKYAEERDRAEAEAREKETKALSLARALEEAMEQKAELERLNKQFRTEMEDLMSSKDDVGKSVHELEKSKRALEQQVEEMKTQLEELEDELQATEDAKLRLEVNLQAMKAQFERDLQGRDEQSEEKKKQLVRQVREMEAELEDERKQRSMAVAARKKLEMDLKDLEAHIDSANKNRDEAIKQLRKLQAQMKDCMRELDDTRASREEILAQAKENEKKLKSMEAEMIQLQEELAAAERAKRQAQQERDELADEIANSSGKGALALEEKRRLEARIAQLEEELEEEQGNTELINDRLKKANLQIDQINTDLNLERSHAQKNENARQQLERQNKELKVKLQEMEGTVKSKYKASITALEAKIAQLEEQLDNETKERQAACKQVRRTEKKLKDVLLQVDDERRNAEQYKDQADKASTRLKQLKRQLEEAEEEAQRANASRRKLQRELEDATETADAMNREVSSLKNKLRRGDLPFVVPRRMARKGAGDGSDEEVDGKADGAEAKPAE
notes: as for B4
B7: GST-LMM D1424N (domain or fragment, human, UniProt P35579 1212-1960, looked up)
chain: KANLEKAKQTLENERGELANEVKVLLQGKGDSEHKRKKVEAQLQELQVKFNEGERVRTELADKVTKLQVELDNVTGLLSQSDSKSSKLTKDFSALESQLQDTQELLQEENRQKLSLSTKLKQVEDEKNSFREQLEEEEEAKHNLEKQIATLHAQVADMKKKMEDSVGCLETAEEVKRKLQKDLEGLSQRHEEKVAAYDKLEKTKTRLQQELDNLLVDLDHQRQSACNLEKKQKKFDQLLAEEKTISAKYAEERDRAEAEAREKETKALSLARALEEAMEQKAELERLNKQFRTEMEDLMSSKDDVGKSVHELEKSKRALEQQVEEMKTQLEELEDELQATEDAKLRLEVNLQAMKAQFERDLQGRDEQSEEKKKQLVRQVREMEAELEDERKQRSMAVAARKKLEMDLKDLEAHIDSANKNRDEAIKQLRKLQAQMKDCMRELDDTRASREEILAQAKENEKKLKSMEAEMIQLQEELAAAERAKRQAQQERDELADEIANSSGKGALALEEKRRLEARIAQLEEELEEEQGNTELINDRLKKANLQIDQINTDLNLERSHAQKNENARQQLERQNKELKVKLQEMEGTVKSKYKASITALEAKIAQLEEQLDNETKERQAACKQVRRTEKKLKDVLLQVDDERRNAEQYKDQADKASTRLKQLKRQLEEAEEEAQRANASRRKLQRELEDATETADAMNREVSSLKNKLRRGDLPFVVPRRMARKGAGDGSDEEVDGKADGAEAKPAE
notes: as for B4

Target: the molecule itself
Experiment: negative stain electron microscopy of filaments; self-assembly into filaments on dilution into low-salt buffer (10 mM phosphate, pH 7.4, 150 mM NaCl, 0.5 mM TCEP), on ice, 200 to 500 nM protein; stained with 1% uranyl acetate

Binding result, binds:
B1
B2
B3
B4
B5
B6
B7
